Results: IntAct's records for PubMed 16888620

Biological target: sgk3_human SGK3 (UniProt Q96BR1)
Sequence (Q96BR1 whole entry): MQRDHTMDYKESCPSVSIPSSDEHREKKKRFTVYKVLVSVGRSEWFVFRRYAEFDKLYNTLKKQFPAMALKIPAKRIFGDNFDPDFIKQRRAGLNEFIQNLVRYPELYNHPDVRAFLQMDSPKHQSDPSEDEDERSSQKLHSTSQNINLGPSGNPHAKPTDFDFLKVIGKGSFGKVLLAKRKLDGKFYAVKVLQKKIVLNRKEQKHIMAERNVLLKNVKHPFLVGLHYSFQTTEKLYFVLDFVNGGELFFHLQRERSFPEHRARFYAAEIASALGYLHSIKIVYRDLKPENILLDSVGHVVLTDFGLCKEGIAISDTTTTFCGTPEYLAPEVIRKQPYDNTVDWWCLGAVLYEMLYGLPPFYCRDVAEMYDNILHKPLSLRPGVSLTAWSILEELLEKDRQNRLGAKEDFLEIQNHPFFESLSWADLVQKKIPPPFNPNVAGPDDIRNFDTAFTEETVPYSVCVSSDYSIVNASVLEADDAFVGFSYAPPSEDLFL

Substance	effect of a mutation on the interaction
E3 ubiquitin-protein ligase Itchy homolog (Homo sapiens), Q96J02 S450A	disrupting interaction strength
E3 ubiquitin-protein ligase Itchy homolog (Homo sapiens), Q96J02 T385A	decreasing interaction strength
